Reference: the supplement of paper PMC10065799, “High-throughput profiling of sequence recognition by tyrosine kinases and SH2 domains using bacterial peptide display” (eLife, 2023)

Key:
AncSZ = assay: phosphorylation enrichment, bacterial display (enrichment ratio); higher = better substrate or ligand; peptides without Tyr show the background
EPHB1 = EPHB1 (UniProt P54762); assay: as above
EPHB2 = EPHB2 (UniProt P29323); assay: as above
FGFR1 = FGFR1 (UniProt P11362); assay: as above
FGFR3 = FGFR3 (UniProt P22607); assay: as above
Fer (mouse) = assay: as above
Fes = Fes (UniProt P07332); assay: as above
Sequence of Fes (P07332 whole entry, looked up): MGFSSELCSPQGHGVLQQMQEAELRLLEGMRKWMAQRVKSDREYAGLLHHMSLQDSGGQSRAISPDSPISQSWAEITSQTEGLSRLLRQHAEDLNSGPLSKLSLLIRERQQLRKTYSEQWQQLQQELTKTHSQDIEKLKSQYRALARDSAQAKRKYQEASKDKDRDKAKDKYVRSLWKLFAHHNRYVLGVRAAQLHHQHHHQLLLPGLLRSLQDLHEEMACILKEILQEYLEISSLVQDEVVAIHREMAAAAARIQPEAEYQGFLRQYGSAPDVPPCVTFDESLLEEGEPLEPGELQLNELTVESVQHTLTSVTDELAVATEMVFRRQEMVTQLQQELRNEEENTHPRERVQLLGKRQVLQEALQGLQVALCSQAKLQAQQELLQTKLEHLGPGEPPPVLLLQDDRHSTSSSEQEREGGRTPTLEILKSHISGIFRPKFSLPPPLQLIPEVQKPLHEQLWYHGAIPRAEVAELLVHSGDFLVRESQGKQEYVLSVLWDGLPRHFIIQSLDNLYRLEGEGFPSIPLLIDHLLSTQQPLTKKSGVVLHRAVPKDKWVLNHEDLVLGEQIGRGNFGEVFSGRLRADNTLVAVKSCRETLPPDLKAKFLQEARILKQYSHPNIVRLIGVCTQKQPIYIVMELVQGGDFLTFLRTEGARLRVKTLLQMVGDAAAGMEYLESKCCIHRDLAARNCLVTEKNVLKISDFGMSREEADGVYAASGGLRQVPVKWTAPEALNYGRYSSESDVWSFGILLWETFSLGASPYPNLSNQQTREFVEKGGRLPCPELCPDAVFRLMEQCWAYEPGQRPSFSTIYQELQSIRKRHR

Fyn = Fyn (UniProt P06241); assay: as above
Hck = Hck (UniProt P08631); assay: as above
Sequence of Hck (P08631 whole entry, looked up): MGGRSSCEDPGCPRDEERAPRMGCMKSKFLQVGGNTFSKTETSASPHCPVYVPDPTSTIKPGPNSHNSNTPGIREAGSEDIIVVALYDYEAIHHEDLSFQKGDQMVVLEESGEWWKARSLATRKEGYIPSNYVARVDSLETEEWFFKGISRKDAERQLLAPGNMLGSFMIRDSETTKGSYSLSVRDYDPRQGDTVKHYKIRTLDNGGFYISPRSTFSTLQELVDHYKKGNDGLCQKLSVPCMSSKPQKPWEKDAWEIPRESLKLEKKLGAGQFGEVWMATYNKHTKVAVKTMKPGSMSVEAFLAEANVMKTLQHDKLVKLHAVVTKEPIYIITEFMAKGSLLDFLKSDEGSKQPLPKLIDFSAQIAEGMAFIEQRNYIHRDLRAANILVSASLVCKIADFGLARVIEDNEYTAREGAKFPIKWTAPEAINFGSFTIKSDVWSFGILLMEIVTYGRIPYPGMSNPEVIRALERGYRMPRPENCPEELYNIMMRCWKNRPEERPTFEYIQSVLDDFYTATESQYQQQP

Jak2 = Jak2 (UniProt O60674); assay: as above
Sequence of Jak2 (O60674 whole entry, looked up): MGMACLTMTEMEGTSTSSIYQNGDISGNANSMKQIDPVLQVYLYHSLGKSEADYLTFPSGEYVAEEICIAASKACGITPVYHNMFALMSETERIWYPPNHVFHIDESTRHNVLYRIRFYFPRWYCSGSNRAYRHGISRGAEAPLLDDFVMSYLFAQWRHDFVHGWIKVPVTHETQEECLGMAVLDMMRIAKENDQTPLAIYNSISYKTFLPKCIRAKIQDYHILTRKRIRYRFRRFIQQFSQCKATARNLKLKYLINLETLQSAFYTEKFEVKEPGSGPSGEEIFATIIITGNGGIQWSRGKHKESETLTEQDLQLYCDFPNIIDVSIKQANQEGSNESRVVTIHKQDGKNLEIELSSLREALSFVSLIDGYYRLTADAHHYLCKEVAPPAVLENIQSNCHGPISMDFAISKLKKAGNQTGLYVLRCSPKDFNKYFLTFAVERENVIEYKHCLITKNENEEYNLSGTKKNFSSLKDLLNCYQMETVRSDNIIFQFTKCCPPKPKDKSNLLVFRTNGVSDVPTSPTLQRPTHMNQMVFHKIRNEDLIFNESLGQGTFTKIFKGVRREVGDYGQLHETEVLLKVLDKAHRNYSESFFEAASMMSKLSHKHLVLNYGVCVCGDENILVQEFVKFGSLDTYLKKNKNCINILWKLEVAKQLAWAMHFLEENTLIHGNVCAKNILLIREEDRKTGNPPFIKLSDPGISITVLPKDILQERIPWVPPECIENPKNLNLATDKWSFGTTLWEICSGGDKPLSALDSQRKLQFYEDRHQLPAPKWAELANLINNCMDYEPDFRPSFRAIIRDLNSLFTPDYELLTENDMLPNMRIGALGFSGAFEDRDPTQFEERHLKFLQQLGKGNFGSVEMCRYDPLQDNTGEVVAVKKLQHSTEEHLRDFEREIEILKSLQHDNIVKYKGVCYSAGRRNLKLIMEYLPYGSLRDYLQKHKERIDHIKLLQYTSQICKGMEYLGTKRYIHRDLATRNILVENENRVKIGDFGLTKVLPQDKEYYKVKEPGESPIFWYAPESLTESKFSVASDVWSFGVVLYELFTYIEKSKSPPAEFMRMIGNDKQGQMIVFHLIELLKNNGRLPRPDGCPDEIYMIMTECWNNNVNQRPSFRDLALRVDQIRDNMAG

MERTK = MERTK (UniProt Q12866); assay: as above
c-Abl (mouse) = assay: as above
c-Src = assay: as above
Grb2 SH2 = Grb2 SH2 (UniProt P62993); assay: SH2 binding enrichment of the phosphorylated peptide, bacterial display (enrichment ratio); higher = better substrate or ligand; peptides without Tyr show the background
Sequence of Grb2 SH2 (P62993 whole entry, looked up): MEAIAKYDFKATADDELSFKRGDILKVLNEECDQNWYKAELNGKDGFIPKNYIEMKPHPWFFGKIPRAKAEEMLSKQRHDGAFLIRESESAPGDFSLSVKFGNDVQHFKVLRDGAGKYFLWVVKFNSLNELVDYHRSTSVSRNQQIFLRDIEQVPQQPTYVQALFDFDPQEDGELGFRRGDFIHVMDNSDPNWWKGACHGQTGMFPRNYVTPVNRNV

SHP2-C SH2 = assay: as above
c-Src SH2 = assay: as above
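Throughout, for SH2 binding enrichment of the phosphorylated peptide, bacterial display: peptide library displayed on the E. coli surface as eCPX fusions, selected cells deep-sequenced, score is each peptide's frequency after selection divided by its frequency in the input.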
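Throughout, for phosphorylation enrichment, bacterial display: 11-residue human phosphosite peptides and single-mutation variants displayed on the E. coli surface, counted by deep sequencing, each peptide's frequency after selection divided by its frequency in the unselected input library; frequency after pTyr selection over input frequency; kinase dosed for 20-30% of maximal phosphorylation in three min.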

Sequence of FGFR1 (P11362 whole entry, looked up): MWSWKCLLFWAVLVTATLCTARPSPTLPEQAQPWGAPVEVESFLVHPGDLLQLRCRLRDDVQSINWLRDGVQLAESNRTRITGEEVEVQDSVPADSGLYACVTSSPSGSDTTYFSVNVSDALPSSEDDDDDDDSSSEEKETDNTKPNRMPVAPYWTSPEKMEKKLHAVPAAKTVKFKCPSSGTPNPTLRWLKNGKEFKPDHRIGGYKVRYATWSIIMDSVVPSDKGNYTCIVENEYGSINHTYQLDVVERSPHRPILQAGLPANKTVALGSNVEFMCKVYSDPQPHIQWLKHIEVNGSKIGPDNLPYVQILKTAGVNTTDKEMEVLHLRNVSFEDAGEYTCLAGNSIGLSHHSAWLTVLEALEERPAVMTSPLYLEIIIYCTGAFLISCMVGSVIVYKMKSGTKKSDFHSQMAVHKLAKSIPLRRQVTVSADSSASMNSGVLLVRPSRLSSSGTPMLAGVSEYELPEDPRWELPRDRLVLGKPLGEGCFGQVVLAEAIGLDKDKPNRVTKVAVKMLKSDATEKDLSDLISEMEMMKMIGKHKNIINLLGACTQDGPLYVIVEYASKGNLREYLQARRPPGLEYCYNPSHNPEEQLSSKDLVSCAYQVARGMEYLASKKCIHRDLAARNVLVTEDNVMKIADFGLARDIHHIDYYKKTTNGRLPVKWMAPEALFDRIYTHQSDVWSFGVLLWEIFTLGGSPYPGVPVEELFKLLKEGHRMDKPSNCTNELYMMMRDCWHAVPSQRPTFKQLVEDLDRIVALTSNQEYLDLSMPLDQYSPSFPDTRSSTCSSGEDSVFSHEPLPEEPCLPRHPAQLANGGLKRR
Sequence of EPHB2 (P29323 whole entry, looked up): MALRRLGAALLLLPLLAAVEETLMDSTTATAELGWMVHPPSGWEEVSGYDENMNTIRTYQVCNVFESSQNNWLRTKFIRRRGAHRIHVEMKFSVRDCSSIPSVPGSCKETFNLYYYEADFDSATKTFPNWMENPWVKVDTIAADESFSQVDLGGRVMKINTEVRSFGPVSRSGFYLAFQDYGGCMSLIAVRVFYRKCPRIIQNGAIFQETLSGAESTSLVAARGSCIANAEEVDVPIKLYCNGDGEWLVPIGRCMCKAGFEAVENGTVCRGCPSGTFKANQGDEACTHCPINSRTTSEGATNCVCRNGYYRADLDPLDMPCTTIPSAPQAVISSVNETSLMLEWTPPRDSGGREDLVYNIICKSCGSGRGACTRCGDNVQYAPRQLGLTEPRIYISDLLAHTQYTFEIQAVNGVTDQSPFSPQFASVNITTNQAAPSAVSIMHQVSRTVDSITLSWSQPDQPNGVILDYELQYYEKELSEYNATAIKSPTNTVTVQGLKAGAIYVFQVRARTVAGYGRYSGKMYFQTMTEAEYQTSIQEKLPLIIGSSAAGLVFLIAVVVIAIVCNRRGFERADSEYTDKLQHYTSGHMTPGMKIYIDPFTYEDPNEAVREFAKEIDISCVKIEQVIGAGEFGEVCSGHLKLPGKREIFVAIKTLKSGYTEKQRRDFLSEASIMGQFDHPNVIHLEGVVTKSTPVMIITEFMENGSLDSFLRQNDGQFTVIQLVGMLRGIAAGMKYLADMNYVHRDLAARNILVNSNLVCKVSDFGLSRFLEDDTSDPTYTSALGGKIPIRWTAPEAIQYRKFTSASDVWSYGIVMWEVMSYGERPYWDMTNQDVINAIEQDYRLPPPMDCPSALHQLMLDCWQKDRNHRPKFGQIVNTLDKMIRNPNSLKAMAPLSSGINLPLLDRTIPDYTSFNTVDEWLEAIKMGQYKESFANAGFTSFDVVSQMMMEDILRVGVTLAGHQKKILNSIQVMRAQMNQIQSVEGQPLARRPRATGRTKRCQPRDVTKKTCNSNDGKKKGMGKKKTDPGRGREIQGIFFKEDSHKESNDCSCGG

Sequence | phosphorylation enrichment (AncSZ) | phosphorylation enrichment (EPHB1) | phosphorylation enrichment (EPHB2) | phosphorylation enrichment (FGFR1) | phosphorylation enrichment (FGFR3) | phosphorylation enrichment (Fer (mouse)) | phosphorylation enrichment (Fes) | phosphorylation enrichment (Fyn) | phosphorylation enrichment (Hck) | phosphorylation enrichment (Jak2) | phosphorylation enrichment (MERTK) | phosphorylation enrichment (c-Abl (mouse)) | phosphorylation enrichment (c-Src) | SH2 binding enrichment (Grb2 SH2) | SH2 binding enrichment (SHP2-C SH2) | SH2 binding enrichment (c-Src SH2)
AAESTYDKILK [GDNF_Y156_T154S] | 0.681 | 0.463 | 0.508 | 0.391 | 0.586 | 0.418 | 0.886 | 0.76 | 1.75 | 0.682 | 0.401 | 0.563 | 0.719 | 1.08 | 0.672 | 5.23
AAPAAYDAADT [GAMT_Y27] | 1.1 | 0.479 | 0.5 | 0.529 | 0.683 | 0.526 | 0.97 | 0.522 | 0.495 | 0.857 | 0.461 | 0.782 | 0.513 | 0.839 | 0.654 | 1.11
AASTDYNKRGD [PDHA1_Y242_Y243N] | 0.578 | 0.453 | 0.313 | 0.452 | 0.451 | 0.386 | 0.505 | 0.37 | 0.509 | 0.515 | 0.453 | 0.67 | 0.618 | 0.754 | 0.574 | 0.567
AATTAYSKPKQ [MAP3K7_Y405_R410Q] |  |  |  |  |  |  |  |  |  | 0.257 |  | 0.121 | 0.063 | 0.648 | 0.57 | 0.477
AAVDTYCRHNY [HLA-DRB1_Y107] | 0.871 | 0.507 | 0.527 | 0.451 | 0.571 | 0.442 | 0.914 | 0.548 | 0.531 | 0.911 | 0.479 | 0.755 | 0.461 | 0.731 | 0.777 | 0.516
ACQGKYTPSSQ [ALDOA_Y343_G347S] | 0.542 | 0.346 | 0.389 | 0.362 | 0.466 | 0.425 | 0.579 | 0.433 | 0.417 | 0.421 | 0.404 | 0.392 | 0.449 | 0.928 | 0.887 | 0.553
ACQSLYGGFVE [MVD_Y164_R161Q] | 0.949 | 0.719 | 1.53 | 0.567 | 0.665 | 0.744 | 0.945 | 11.1 | 8.54 | 0.775 | 1.14 | 0.7 | 7.59 | 0.902 | 0.735 | 0.628
ADCRFYAFPQM [GAMT_Y223_YF] | 2.44 | 3.25 | 3.79 | 0.719 | 1.03 | 6.04 | 1.57 | 0.76 | 0.92 | 1.45 | 7.18 | 2.39 | 1.35 | 0.778 | 0.653 | 0.526
ADDSFYTVRSA [ZAP70_Y493_A495V_YF] | 0.884 | 0.439 | 0.478 | 0.444 | 0.748 | 0.489 | 0.999 | 1.21 | 1.22 | 0.829 | 0.552 | 0.734 | 1.53 | 0.701 | 0.556 | 0.466
ADLVQYYMEHH [PTPN11_Y80_E76D] | 1.18 | 1.16 | 0.806 | 1.04 | 1.18 | 0.464 | 1.12 | 0.668 | 0.967 | 0.914 | 0.642 | 0.751 | 0.84 | 0.796 | 0.919 | 0.714
ADRAAYLQNLN [MYH1_Y389_K386R] | 0.604 | 0.563 | 0.338 | 0.629 | 0.441 | 0.364 | 0.699 | 0.336 | 0.334 | 0.604 | 0.362 | 0.679 | 0.42 | 0.719 | 0.552 | 0.403
AEDEDYESVGA [SYKtide_2014] | 1.29 | 0.815 | 0.672 | 0.62 | 0.937 | 0.655 | 1.44 | 0.586 | 0.658 | 1.26 | 0.49 | 0.938 | 0.616 | 0.852 | 0.975 | 0.589
AELVPYYMEHH [PTPN11_Y80_Q79P] | 0.916 | 0.778 | 0.635 | 0.822 | 0.792 | 0.513 | 0.995 | 0.626 | 0.736 | 0.757 | 0.552 | 0.733 | 1.28 | 0.963 | 1.49 | 1.19
AEPPDYSPVTH [ADGRG2_Y285] | 1.66 | 0.817 | 0.582 | 0.54 | 0.786 | 0.764 | 1.06 | 0.542 | 0.598 | 0.836 | 0.491 | 0.792 | 0.417 | 0.836 | 0.611 | 0.477
AEVIWYKGDEE | 1.26 | 0.41 | 0.483 | 0.359 | 0.636 | 0.342 | 1.07 | 0.369 | 0.414 | 1.08 | 0.343 | 0.616 | 0.303 | 1.11 | 0.531 | 0.446
AFGNLYGSRKQ [YIPF7_Y59_YF] | 0.526 | 0.357 | 0.531 | 0.397 | 0.398 | 0.409 | 0.55 | 0.718 | 2.93 | 0.505 | 0.519 | 0.657 | 1.09 | 0.788 | 0.376 | 0.35
AFPVSYSSPGA [RET_Y687_S690P] | 0.704 | 0.442 | 0.478 | 0.423 | 0.466 | 0.468 | 0.616 | 0.518 | 0.422 | 0.508 | 0.512 | 0.572 | 0.475 | 0.685 | 0.679 | 0.615

Sequence | phosphorylation enrichment (AncSZ) | phosphorylation enrichment (EPHB1) | phosphorylation enrichment (EPHB2) | phosphorylation enrichment (FGFR1) | phosphorylation enrichment (FGFR3) | phosphorylation enrichment (Fer (mouse)) | phosphorylation enrichment (Fes) | phosphorylation enrichment (Fyn) | phosphorylation enrichment (Hck) | phosphorylation enrichment (Jak2) | phosphorylation enrichment (MERTK) | phosphorylation enrichment (c-Abl (mouse)) | phosphorylation enrichment (c-Src) | SH2 binding enrichment (Grb2 SH2) | SH2 binding enrichment (SHP2-C SH2) | SH2 binding enrichment (c-Src SH2)
AGAIIYTSRFQ [PFAS_Y538] | 0.748 | 0.486 | 0.674 | 0.398 | 0.504 | 0.506 | 0.839 | 0.58 | 0.76 | 0.686 | 0.568 | 0.72 | 0.929 | 1.08 | 1.1 | 0.464
AGEGSYALDSE [PES1_Y265_T264S] | 1.24 | 0.461 | 0.629 | 0.644 | 0.719 | 0.608 | 1.19 | 0.946 | 0.747 | 1.05 | 0.568 | 0.64 | 0.538 | 0.977 | 0.649 | 0.668
AGEGTYALDSE [PES1_Y265] | 0.972 | 0.576 | 0.511 | 0.484 | 0.643 | 0.5 | 1.04 | 0.984 | 0.528 | 0.878 | 0.434 | 0.816 | 0.935 | 0.928 | 0.435 | 0.617
AGQEDYDRLRS [RHOA_Y66_P71S] | 0.96 | 0.582 | 0.513 | 0.475 | 0.639 | 0.795 | 1.38 | 0.555 | 0.638 | 1.05 | 0.466 | 0.741 | 0.609 | 0.596 | 0.657 | 0.554
AHAGEYGADAL [HBA1_Y25_E28D] | 0.606 | 0.401 | 0.416 | 0.392 | 0.41 | 0.312 | 0.653 | 0.414 | 0.436 | 0.578 | 0.373 | 0.776 | 0.357 | 0.708 | 0.61 | 0.448
AIDVGYRHIDC [AKR1B1_Y40] | 0.637 | 0.419 | 0.531 | 0.476 | 0.622 | 0.44 | 0.844 | 0.466 | 0.457 | 0.635 | 0.366 | 0.629 | 0.411 | 1.04 | 1.12 | 0.98
AIFRRYSKFFD [SH3PXD2B_Y45_YF] | 1.03 | 0.526 | 0.565 | 0.598 | 0.587 | 0.408 | 1.13 | 0.582 | 0.54 | 1.04 | 0.572 | 0.773 | 0.626 | 0.56 | 0.572 | 0.475
AKFLGYPPPEI [KDR_Y357_YF] | 0.773 | 0.474 | 0.413 | 0.499 | 0.609 | 0.459 | 0.902 | 0.426 | 0.488 | 0.565 | 0.412 | 0.627 | 0.436 | 0.794 | 0.619 | 0.476
AKVKPYVNGTS [IBTK_Y1064] | 0.606 | 0.41 | 0.419 | 0.421 | 0.47 | 0.461 | 0.559 | 0.486 | 0.402 | 0.58 | 0.357 | 0.778 | 0.412 | 1.11 | 0.878 | 0.559
ALAHKYRGGGG [HBD_Y146_H147R] | 0.404 | 0.311 | 0.362 | 0.422 | 0.364 | 0.315 | 0.495 | 0.335 | 0.333 | 0.351 | 0.309 | 0.471 | 0.432 | 0.804 | 0.598 | 0.535
ALTRSYIRERV [CYP2C8_Y243_K247R] | 0.768 | 0.373 | 0.457 | 0.421 | 0.423 | 0.373 | 0.536 | 0.334 | 0.493 | 0.58 | 0.391 | 0.458 | 0.451 | 0.607 | 0.51 | 0.395
ALVFLYFCIIF [SIGLEC12_Y494] | 1.04 | 0.397 | 0.483 | 0.58 | 0.803 | 0.6 | 1.16 | 0.552 | 0.964 | 1.01 | 0.636 | 0.957 | 0.741 | 1.91 | 1.48 | 1.36
ANQDDHISFRH [IMP4_Y226_Y226H] | 0.852 | 0.518 | 0.497 | 0.456 | 0.535 | 0.416 | 0.903 | 0.419 | 0.501 | 0.833 | 0.453 | 0.912 | 0.611 | 1.02 | 0.512 | 0.502
ANSSFYSTRSA [NUMA1_Y1836] | 0.56 | 0.405 | 0.365 | 0.425 | 0.41 | 0.356 | 0.568 | 0.513 | 1.07 | 0.575 | 0.523 | 0.644 | 0.468 | 0.713 | 0.659 | 0.412
APTSGYQEFIH [IL4R_Y575_V579I] | 0.717 | 0.424 | 0.582 | 0.572 | 0.679 | 0.416 | 0.82 | 0.504 | 0.461 | 0.684 | 0.429 | 0.527 | 0.442 | 0.878 | 0.5 | 3.98
ARGMEYLASKN [FGFR1_Y613_K618N] | 0.452 | 0.285 | 0.32 | 0.407 | 0.447 | 0.271 | 0.511 | 0.327 | 0.337 | 0.463 | 0.355 | 0.385 | 0.394 | 1.03 | 0.557 | 0.524
LVKDGYQTAQP [CSF1R_Y873_M875T] |  |  |  |  |  |  |  |  |  | 1.27 |  | 0.544 | 1.29 | 0.909 | 0.307 | 1.35
